Reference: US20170088602A1 (Bristol-Myers Squibb, published 2017)

T1: human myostatin (mature, recombinant; R&D Systems) (human, UniProt O14793 267-375)
T1 sequence: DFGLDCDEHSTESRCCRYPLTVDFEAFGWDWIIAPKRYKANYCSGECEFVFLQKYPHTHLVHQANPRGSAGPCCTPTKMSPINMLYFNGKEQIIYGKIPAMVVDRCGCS

T2: human Activin A (R&D Systems) (human, UniProt P08476 311-426)
T2 sequence (looked up): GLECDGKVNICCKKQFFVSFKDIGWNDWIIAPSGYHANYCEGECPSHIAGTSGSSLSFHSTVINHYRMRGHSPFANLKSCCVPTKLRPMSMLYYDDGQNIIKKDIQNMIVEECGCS

B1: 3116_A06 R56A (designed binder)
chain: MGVSDVPRDLEVVAATPTSLLISWSLPHQGKANYYRITYGETGGNSPVQEFTVPGAGVTATISGLKPGVDYTITVYAVTVTDTGYLKYKPISINYRTEIDKPSQHHHHHH
B2: ActRIIb-Fc (R&D Systems) (Fc fusion, human, UniProt Q13705 19-134, looked up, not shown: a dimerising Fc or GST)
chain: SGRGEAETRECIYYNANWELERTNQSGLERCEGEQDKRLHCYASWRNSSGTIELVKKGCWLDDFNCYDRQECVATEENPQVYFCCCEGNFCNERFTHLPEAGGPEVTYEPPPTAPT
modifications: Alexa Fluor 647 label in the HTRF assay
notes: also called rhActRIIb-Fc; Human Activin RIIB Fc Chimera
B3: human BMP-11 (GDF-11; R&D Systems) (ligand, UniProt O95390 299-407, looked up)
chain: NLGLDCDEHSSESRCCRYPLTVDFEAFGWDWIIAPKRYKANYCSGQCEYMFMQKYPHTHLVQQANPRGSAGPCCTPTKMSPINMLYFNDKQQIIYGKIPGMVVDRCGCS
B4: ATI-1339 [40K 4-branch PEG] (designed binder)
chain: MGVSDVPRDLEVVAATPTSLLISWTLPHAGRAHYYRITYGETGGNSPVQEFTVPGRGVTATISGLKPGVDYTITVYAVTVTTTKVIHYKPISINYRTEGSGCHHHHHH
modifications: 40K 4-branch PEG on the Cys of the EGSGC tail
notes: cysteine mutant of 2987_H07
B5: ATI-1338 [40K 2-branch PEG] (designed binder)
chain: MGVSDVPRDLEVVAATPTSLLISWTLPHAGRAHYYRITYGETGGNSPVQEFTVPGRGVTATISGLKPGVDYTITVYAVTVTTTKVIHYKPISINYRTEGSGCHHHHHH
modifications: 40K 2-branch PEG on the Cys of the EGSGC tail
notes: cysteine mutant of 2987_H07

Columns and labels:
[1] = target: T1, human myostatin (mature, recombinant; …); assay: cell-based or functional assay
[2] = target: T1, human myostatin (mature, recombinant; …); assay: competitive HTRF, alanine scan
[3] = target: T1, human myostatin (mature, recombinant; …); assay: HTRF competition binding assay, alanine mutant
[4] = target: T2, human Activin A (R&D Systems); assay: SPR format A set-up
Excerpt: (§1) Anti-human Fc antibody (Biacore/GE) was immobilized on a Biacore CM5 chip via NHS/EDC coupling according to the manufacturer's instructions. […] A concentration range of anti-myostatin Adnectin was applied across all flow cells in HBSP running buffer. Regeneration of the chip surface between cycles was accomplished with two 30 second pulses of 3M MgCl₂. Kinetic traces of reference-subtracted sensorgrams were fit to a 1:1 binding model using Biaevaluation software.

[5] = target: T1, human myostatin (mature, recombinant; …); assay: competitive ELISA: 10 nM myostatin preincubated with soluble ActRIIb-Fc, then binding to plate-coated ActRIIb-Fc detected with biotinylated anti-myostatin polyclonal; % competition
Experimental: Competitive ELISA: Competitive binding assays to evaluate the ability of anti-myostatin Adnectins to compete with the ActRIIB receptor binding to myostatin were carried out using competitive ELISA. Nunc Maxisorp plates were coated with 2 μg/mL ActRIIb-Fc (R&D Systems) in 0.2M sodium carbonate pH 9.6 buffer overnight at 4° C. After washing with PBS-T (PBS containing 0.05% Tween-20), wells were blocked with OptEIA buffer (BD Biosciences) for 1 h at 25° C. with shaking. Myostatin (10 nM; R&D Systems) was preincubated with a concentration range of Adnectin or ActRIIb-Fc competitor (0.2 pM to 1 μM) in OptEIA buffer for 1 h at 25° C. with shaking. The blocked and coated assay plate was washed with PBS-T, and then myostatin/competitor mixtures were added and incubated for 30 min at 25° C. with shaking. The assay plate was washed with PBS-T, after which bound myostatin was detected with 1:1000 biotinylated goat anti-myostatin polyclonal (R&D Systems) diluted in OptEIA, for 1 h at 25° C. with shaking. After washing with PBS-T, 1:5000 Streptavidin-HRP (Thermo/Pierce) diluted in OptEIA was added, followed by incubation for 30 min at 25° C. with shaking. The assay plate was developed with TMB (BD Biosciences), quenched with 2N sulfuric acid, and absorbance read at A450.

ActRIIb-Fc (R&D Systems) = target: B2; assay: SPR format A set-up
Excerpt: as §1

[6] = target: T1, human myostatin (mature, recombinant; …); assay: SPR format B, 37C
Experimental: (§2) A concentration range of anti-myostatin Adnectins was applied in HBSP running buffer. Regeneration of the chip surface between cycles was accomplished with 60 seconds of 10-50 mM NaOH. Kinetic traces of reference-subtracted sensorgrams were fit to a 1:1 binding model using Biaevaluation software. For Fc-formatted Adnectins, interaction kinetics are driven by avidity of bivalent Fc and dimeric myostatin even at low immobilization density. The data shown in Table 12 indicate that some of the Adnectins run in this SPR format bind myostatin and BMP-11 and also activin with similar affinities.

[7] = target: B3; assay: SPR format B, 37C
Experimental: as §2

[8] = target: T2, human Activin A (R&D Systems); assay: SPR format B, 37C
Experimental: as §2

[9] = target: T1, human myostatin (mature, recombinant; …); assay: cell-based or functional assay; remark: listed apart in the source
[10] = target: B3; assay: cell-based or functional assay
[11] = target: T2, human Activin A (R&D Systems); assay: cell-based or functional assay
[12] = target: T1, human myostatin (mature, recombinant; …); assay: competitive HTRF (1889E01/myostatin/ActRIIb-Fc sandwich)
Excerpt: An HTRF assay was used to measure the binding affinities of anti-myostatin Adnectins to myostatin. […] The Eu-W 1024 labeled Streptavidin is used to bind biotinylated 1889E01. […] In the presence of a competitive Adnectin, the HTRF signal decreases.

[13] = target: T1, human myostatin (mature, recombinant; …); assay: KinExA, solution phase, global analysis
Experimental: The affinities of PRD-1177 and ATI-1338 were also measured using the same assay format. Triplicate titrations of PRD-1177 were performed with myostatin at a monomer concentration of 1 nM (n=2) and 0.8 nM (n=1). Triplicate titrations of ATI-1338 were performed with myostatin at a monomer concentration of 5 nM (n=1), 1.6 nM (n=1), and 1.4 nM (n=1).

Binder | Kd [6] [nM] | Kd [7] [nM] | Kd [8] [nM] | ARE-luciferase IC50 [9] [nM] | ARE-luciferase IC50 [10] [nM] | ARE-luciferase IC50 [11] [nM] | IC50 [12] [nM] | further results
B1 |  |  |  |  |  |  |  | Myostatin ARE-luc IC50 [1]: > 100 nM; IC50 [2]: 55 nM; IC50 [3]: > 100 nM
B2 |  |  |  |  |  |  |  | binding result [4]: binds; IC50 (read off the curve) [5]: ~1 nM
B3 |  |  |  |  |  |  |  | binding result (ActRIIb-Fc (R&D Systems)): binds
B4 | 3.6 | 6.9 | 6.5 | 0.28 | 6 | > 1000 | 0.28 | 
B5 | 1.9 | 3.8 | 4.6 | 0.28 | 5.8 | > 1000 | 0.24 | Kd [13]: 0.85 nM
